Assay results as given in patent publication US20240100162A1.

Molecular target: highly frequent MHC Class I alleles in major US ethnic groups, including 38 HLA-A, 40 HLA-B, and 24 HLA-C alleles, on a panel of 34 BLCLs
Assay: cell-based or functional assay

Binder | cytokine (IFNg, TNFa, IL-12p70) and granzyme B production in co-culture with BLCLs, fold over IL12-RFP control T cells [fold]
TCR1 (TCR) TCR alpha: KQEVTQIPAALSVPEGENLVLNCSFTDSAIYNLQWFRQDPGKGLTSLLLIQSSQREQTSGRLNASLDKSSGRSTLYIAASQPGDSATYLCAAMKTSYDKVIFGPGTSLSVIPNIQNPDPAVYQLRDSKSSDKSVCLFTDFDSQTNVSQSKDSDVYITDKTVLDMRSMDFKSNSAVAWSNKSDFACANAFNNSIIPEDTFFPSPESSCDVKLVEKSFETDTNLNFQNLSVIGFRILLLKVAGFNLLMTLRLWSS TCR beta: GEEVAQTPKHLVRGEGQKAKLYCAPIKGHSYVFWYQQVLKNEFKFLISFQNENVFDETGMPKERFSAKCLPNSPCSLEIQATKLEDSAVYFCASSQGQGGYGYTFGSGTRLTVVEDLNKVFPPEVAVFEPSEAEISHTQKATLVCLATGFFPDHVELSWWVNGKEVHSGVSTDPQPLKEQPALNDSRYCLSSRLRVSATFWQNPRNHFRCQVQFYGLSENDEWTQDRAKPVTQIVSAEAWGRADCGFTSVSYQQGVLSATILYEILLGKATLYAVLVSALVLMAMVKRKDF | < 4
TCR2 (TCR) TCR alpha: QKEVEQNSGPLSVPEGAIASLNCTYSDRGSQSFFWYRQYSGKSPELIMSIYSNGDKEDGRFTAQLNKASQYVSLLIRDSQPSDSATYLCAVNIPFSNSGGYQKVTFGTGTKLQVIPNIQNPDPAVYQLRDSKSSDKSVCLFTDFDSQTNVSQSKDSDVYITDKTVLDMRSMDFKSNSAVAWSNKSDFACANAFNNSIIPEDTFFPSPESSCDVKLVEKSFETDTNLNFQNLSVIGFRILLLKVAGFNLLMTLRLWSS TCR beta: NAGVTQTPKFRVLKTGQSMTLLCAQDMNHEYMYWYRQDPGMGLRLIHYSVGEGTTAKGEVPDGYNVSRLKKQNFLLGLESAAPSQTSVYFCASRHPGQYNQPQHFGDGTRLSILEDLNKVFPPEVAVFEPSEAEISHTQKATLVCLATGFFPDHVELSWWVNGKEVHSGVSTDPQPLKEQPALNDSRYCLSSRLRVSATFWQNPRNHFRCQVQFYGLSENDEWTQDRAKPVTQIVSAEAWGRADCGFTSVSYQQGVLSATILYEILLGKATLYAVLVSALVLMAMVKRKDF | < 4
TCR3 (TCR) TCR alpha: AQKVTQAQTEISVVEKEDVTLDCVYETRDTTYYLFWYKQPPSGELVFLIRRNSFDEQNEISGRYSWNFQKSTSSFNFTITASQVVDSAVYFCALSVLRMDSSYKLIFGSGTRLLVRPDIQNPDPAVYQLRDSKSSDKSVCLFTDFDSQTNVSQSKDSDVYITDKTVLDMRSMDFKSNSAVAWSNKSDFACANAFNNSIIPEDTFFPSPESSCDVKLVEKSFETDTNLNFQNLSVIGFRILLLKVAGFNLLMTLRLWSS TCR beta: NAGVTQTPKFRVLKTGQSMTLLCAQDMNHEYMYWYRQDPGMGLRLIHYSVGEGTTAKGEVPDGYNVSRLKKQNFLLGLESAAPSQTSVYFCASSLQGAGQPQHFGDGTRLSILEDLNKVFPPEVAVFEPSEAEISHTQKATLVCLATGFFPDHVELSWWVNGKEVHSGVSTDPQPLKEQPALNDSRYCLSSRLRVSATFWQNPRNHFRCQVQFYGLSENDEWTQDRAKPVTQIVSAEAWGRADCGFTSVSYQQGVLSATILYEILLGKATLYAVLVSALVLMAMVKRKDF | < 4
